B1: ADP-ribosylation factor-binding protein GGA1 (Homo sapiens), Q9UJY5 (parent)
chain: MEPAMEPETLEARINRATNPLNKELDWASINGFCEQLNEDFEGPPLATRLLAHKIQSPQEWEAIQALTVLETCMKSCGKRFHDEVGKFRFLNELIKVVSPKYLGSRTSEKVKNKILELLYSWTVGLPEEVKIAEAYQMLKKQGIVKSDPKLPDDTTFPLPPPRPKNVIFEDEEKSKMLARLLKSSHPEDLRAANKLIKEMVQEDQKRMEKISKRVNAIEEVNNNVKLLTEMVMSHSQGGAAAGSSEDLMKELYQRCERMRPTLFRLASDTEDNDEALAEILQANDNLTQVINLYKQLVRGEEVNGDATAGSIPGSTSALLDLSGLDLPPAGTTYPAMPTRPGEQASPEQPSASVSLLDDELMSLGLSDPTPPSGPSLDGTGWNSFQSSDATEPPAPALAQAPSMESRPPAQTSLPASSGLDDLDLLGKTLLQQSLPPESQQVRWEKQQPTPRLTLRDLQNKSSSCSSPSSSATSLLHTVSPEPPRPPQQPVPTELSLASITVPLESIKPSNILPVTVYDQHGFRILFHFARDPLPGRSDVLVVVVSMLSTAPQPIRNIVFQSAVPKVMKVKLQPPSGTELPAFNPIVHPSAITQVLLLANPQKEKVRLRYKLTFTMGDQTYNEMGDVDQFPPPETWGSL

Variants of: B1
Settings: with bace1_human BACE1, P56817
bace1_human BACE1, P56817, sequence (P56817 whole entry): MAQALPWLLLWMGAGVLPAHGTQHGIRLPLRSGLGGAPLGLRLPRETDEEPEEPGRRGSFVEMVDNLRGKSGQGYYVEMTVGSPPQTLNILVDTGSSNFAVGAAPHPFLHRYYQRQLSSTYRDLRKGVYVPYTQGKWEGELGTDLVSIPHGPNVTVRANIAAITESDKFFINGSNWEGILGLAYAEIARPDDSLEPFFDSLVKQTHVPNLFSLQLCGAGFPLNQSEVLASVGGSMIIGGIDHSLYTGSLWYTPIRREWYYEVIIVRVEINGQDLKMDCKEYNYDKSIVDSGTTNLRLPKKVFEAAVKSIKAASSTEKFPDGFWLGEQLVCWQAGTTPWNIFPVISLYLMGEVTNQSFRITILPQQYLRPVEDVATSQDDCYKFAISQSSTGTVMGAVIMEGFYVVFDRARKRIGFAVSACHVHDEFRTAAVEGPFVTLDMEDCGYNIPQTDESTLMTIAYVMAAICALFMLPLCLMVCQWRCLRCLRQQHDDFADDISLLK

effect of a mutation on the interaction	Variant
with no effect	S355A
with no effect	S355D

From IntAct's records for PubMed 26053850
